Reference: the RNAGym collection of RNA variant scans (doi:10.1073/pnas.2313332121)

B1: TPR t1 (parent)
chain: GACCAAUCUGCCCUCAGAGCUCGAGAACAUCUUCGGAUGCAGAGGAGGCAGGCUUCGGUGGCGCGAUAGCGCCAACGUCCUCAACCUCCAAUGCAUCCCACCACAUGAUGAUGCCUGAAGAGCCUUGGUUUUUUG

Variants of: B1
Assay: polymerase ribozyme fitness, log enrichment relative to wild type (log ratio); higher = more active; in vitro selection for triplet polymerase activity
Procedure, shortened: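 Input and output libraries were sequenced on Illumina after a single in vitro selection round, run in triplicate on PCR-built, transcribed mutant libraries of each subunit of a heterodimeric triplet polymerase ribozyme. Selection annealed libraries to a biotinylated primer, the partner subunit and triplets, incubated them frozen at −7 °C, then gel-excised extended constructs for streptavidin-bead capture and RT-PCR. Genotypes with ≥10 input reads and ≥1 read per output were kept. Fitness is the logarithm, taken in base 2, of genotype enrichment divided by wild-type enrichment, using inverse-variance-weighted replicate averages.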

| Variant | polymerase ribozyme fitness (log ratio) |
| --- | --- |
| A27C U112C | -1.2 |
| C28G G93U A119G U129C | -4.2 |
| A27G G58A A75G | -2.58 |
| A27U C70U | -3.44 |
| A27U C70A | -4.74 |
| A27U C70G | -6.31 |
| C28G C70A A90G G117U | -5.76 |
| A27G C34G A43C G45U C115A | -7.59 |
| A27U C62A | -4.1 |
| C28G G47A C56U U116G | -5.77 |
| A27U C114U | -4.39 |
| A27U G63A | -4.36 |
| A27U G63C | -3.59 |
| A27U G63U | -5.66 |
| A27U C76U G77C | -3.99 |
| A27U G36C G44C G122A U126G | -5.95 |
| C28A C73A C94A A119U | -5.2 |
| C28A C49U | -4.87 |
| A27G U38A | -3.17 |
| C28G A46G G120A U130A | -2.51 |
| A27G A74G C115A | -4.15 |
| C28G U81A U87C | -2.99 |
| C28U A46U C94G | -4.44 |
| C28G C40G G48U C53U | -3.75 |

| Variant | polymerase ribozyme fitness (log ratio) |
| --- | --- |
| C28U A83U C86G C123G | -1.55 |
| C28G C76U | -3.02 |
| C28G G120C | -1.89 |
| A27G U33G G63C G120A C123U | -5.79 |
| C28G G36U C72U C73U | -4.2 |
| A27G C28U G47U G58C | -3.68 |
| A27C U55C C70U U129G | -4.99 |
| A27U G44C C72U C104U | -4.18 |
| C28G A37U G42U C56A U106A G113A C114G | -5.89 |
| C28A U55G G71A | -5.6 |
| C28U C40A G71U U112C U126A | -3.58 |
| A27U G61C C97U U131A | -4.99 |
| A27C G110A | -4.22 |
| A27C U55G | -2.72 |
| A27U U87G G122A | -3.02 |
| A27U G69U C101A | -2.96 |
| C28A G45A C53U G61A G110C | -1.65 |
| A27G A105U | -4.91 |
| A27U U54C G61U G107C U109C G110C | -7.69 |
| A27U C34U G45U G69U | -5.7 |
| A27U G61A U87G | -2.42 |
| A27G G60A | -1.17 |
| C28U A84G A90C G113C | -5.73 |
| A27G G51U G58A U78C A84C | -5.35 |

| Variant | polymerase ribozyme fitness (log ratio) |
| --- | --- |
| C28G C53U C56U | -2.28 |
| A27C G36A G48U A84U G113C G117U C123G | -8.45 |
| A27U C53G | -2.71 |
| A27U C53A | -3.49 |
| A27U C53U | -2.7 |
| C28G G69U | -0.552 |
| C28A G60C | -4.02 |
| C28G G58C C94A | -3.94 |
| A27G G113U | -3.25 |
| C28G U54C A68G G110U | -3.67 |
| A27G G39A C53A C85A C89A G113C | -5.16 |
| C28G G63U C70G C88A U106A U125G G128C | -4.76 |
| A27U U54A C115A | -3.07 |
| C28G G60A | -3.53 |
| A27C G42U C104A C114A G128A | -7.58 |
| A27U A37C U59C | -3.36 |
| C28U A43U G48U G52C C86A C101A G117C C124U | -7.22 |
| C28G G45U | -4.17 |
| C28U A43U C89G | -5.07 |
| C28U A43U U59G C73U | -6.04 |
| C28G G63C U129A | -4.76 |
| C28A C88G | -4.25 |
| C28A G110C C115U U133A | -5.27 |
| C28G C53U C56G G77A C88U | -1.92 |

| Variant | polymerase ribozyme fitness (log ratio) |
| --- | --- |
| A27U C72A C94A | -4.07 |
| A27G A29G G45A C56G C73A A75G C104A G107A G117U | -6.73 |
| A27U A29C G47A C53G A121C | -3.53 |
| A27U C76A C79A | -4.71 |
| A27G A43G G63C | -4.38 |
| C28A C49U G69U G113A | -1.42 |
| C28G U59A | -3.18 |
| C28A G44A G48A C73U U106A | -5.87 |
| A27U U55G C56A G69C | -6.66 |
| A27G G71A | -1.68 |
| A27U G52C C88U | -3.31 |
| A27U A50G U133A | -2.6 |
| C28A C73A C124G | -3.22 |
| C28G A29G G42U G44A A83U C124U | -7.08 |
| C28A C99U U106A | -5.34 |
| A27G C49G G61C G63U C89G G117C | -6.39 |
| A27U C73U U131G | -1.71 |
| A27G C102U | -3.53 |
| A27C G35U C64U C80U U109A | -7.59 |
| C28G U32C G51U C79G | -5.29 |
| A27G G45A G58A G61A A91G | -5.18 |
| A27C G57C C85A G135U | -4.97 |
| A27G C56G C89U G110U | -3.06 |
| A27C G57C | -3.36 |

| Variant | polymerase ribozyme fitness (log ratio) |
| --- | --- |
| A27C G39A A41G | -4.08 |
| C28G A50G G69U | -0.817 |
| A27U C104A | -4.18 |
| C28A U38G G60A | -5.64 |
| A27U C97U | -3.07 |
| C28G C49G G52A G120A | -4.24 |
| A27G C64U G77U C85A U130C | -4.3 |
| C28G G57A | -4.66 |
| C28G G57U | -2.76 |
| A27U G47U C124G | -1.62 |
| C28G G77U U78A C82U | -3.54 |
| C28A C73U | -3.04 |
| A27G C72A G93C G120U | -2.9 |
| C28U A46U A74U | -3.5 |
| A27U C72A C82A U112C G122C | -2.28 |
| A27U C79G | -4.46 |
| A27U C79A | -3.85 |
| A27U C72U A83U | -3.67 |
| C28A G60A C97U U112A | -2.26 |
| C28A G60U A74U A83C G113U | -6.48 |
| A27U C56G G117U C124G | -4.92 |
| C28A C80U A111G | -5.64 |
| C28G G52A C70U C80A G113C | -7.14 |
| A27U U54G U116A C124A G127A | -3.59 |

| Variant | polymerase ribozyme fitness (log ratio) |
| --- | --- |
| C28A C88U C101U | -5.29 |
| C28G C56A G110U C124U | -0.0721 |
| A27U G48C C124G U126C G128A | -4.06 |
| C28A A74C G117U | -7.34 |
| A27G G47C A100U | -4.85 |
| A27G A46G C101A | -3.22 |
| C28G G57C A83C C123A | -2.8 |
| A27C U81C C124A | -2.25 |
| A27G A29U C73U U125A | -3.73 |
| A27G A121G | 1.32 |
| C28U A121U | 0.361 |
| A27G C34A | -4.06 |
| C28A A75G C86G C123U | -5.57 |
| A27U G60C | -3.62 |
| C28G A29C A95G C98U G107A U112A | -5.27 |
| C28G U33A C53A C114U G128U U133A | -7.29 |
| C28G G39C C49U G69A | -6.04 |
| A27C U55C C104U | -3.54 |
| A27U C89U C124A | -1.39 |
| A27U A37C | -2.87 |
| A27U C49G G51A C80A C99U G120C U130A | -8.17 |
| A27U C62U U125A | -3.89 |
| C28U A43C | -4.69 |
| C28A C70A | -4.81 |

| Variant | polymerase ribozyme fitness (log ratio) |
| --- | --- |
| C28A G39U C64U C104A A119G | -5.82 |
| A27U A83U | -3.7 |
| A27C U54C C70U | -4.38 |
| C28G C53A | -1.99 |
| A27U A29G C72A | -2.36 |
| C28G A29U C114G G127C | -5.87 |
| A27C G51U C76U C115G C124G U131A G135U | -7.29 |
| A27C U78C | -3.31 |
| A27U C80A | -5.56 |
| A27U C80U | -3.34 |
| A27C G36A G47C | -4.8 |
| C28G G93U | -3.89 |
| A27G C28G | -4.25 |
| A27U G51U C62A C70U C115G | -6.61 |
| A27U C64U U78C | -3.83 |
| C28G C94A | -4.49 |
| A27G C34U C72U C86A U112A U133C | -2.87 |
| A27U C40U C76G | -4.54 |
| A27U C53A G71U C88A G117C | -6.86 |
| C28A G61U | -3.73 |
| C28G A50C U87A | -3.39 |
| C28G U32C C101A | -3.79 |
| C28G G63A A84C A121U | -3.21 |
